Measured values published in publication PMC5397363 (Molecular microbiology, 2017).
Square brackets hold non-standard residues; d marks the D form. Ends that are not written are not given here. 2Abz = Nc1ccccc1C(=O)O

What was measured:
Assay in all cases: fluorescence polarisation
[1] = molecular target: Staphylococcus aureus Prp C34S (S. aureus, UniProt Q2FXS9 1-106, C34S)
[2] = molecular target: T1, Staphylococcus aureus Prp S38A (S. aureus, UniProt Q2FXS9 1-106, S38A)
T1 sequence: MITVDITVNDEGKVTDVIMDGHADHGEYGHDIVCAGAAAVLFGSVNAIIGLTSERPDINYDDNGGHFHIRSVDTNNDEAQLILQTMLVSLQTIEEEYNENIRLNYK

[3] = molecular target: T2, Staphylococcus aureus Prp H22A (S. aureus, UniProt Q2FXS9 1-106, H22A)
T2 sequence: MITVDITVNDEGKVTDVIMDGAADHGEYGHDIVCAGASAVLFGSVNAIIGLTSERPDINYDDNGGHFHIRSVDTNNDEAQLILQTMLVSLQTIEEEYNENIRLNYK

Measured: binding result

B1: 2-Abz-KLNLQFFASKK-Am, fluorescent L27 cleavage-motif peptide without quencher (peptide)
peptide: [2Abz]KLNLQFFASKK-NH2
modifications: N-terminus assumed
SMILES: CC(C)C[C@H](NC(=O)[C@H](CCCCN)NC(=O)c1ccccc1N)C(=O)N[C@@H](CC(N)=O)C(=O)N[C@@H](CC(C)C)C(=O)N[C@@H](CCC(N)=O)C(=O)N[C@@H](Cc1ccccc1)C(=O)N[C@@H](Cc1ccccc1)C(=O)N[C@@H](C)C(=O)N[C@@H](CO)C(=O)N[C@@H](CCCCN)C(=O)N[C@@H](CCCCN)C(N)=O
binds: all assays above
